Source: the Human Domainome abundance scans (Beltran et al. 2025)
± gives the uncertainty stated by the source.

B1: Proto-oncogene vav, residues 782 to 842; numbered along this chain, P15498 (parent)
chain: KYFGTAKARYDFCARDRSELSLKEGDIIKILNKKGQQGWWRGEIYGRVGWFPANYVEEDYS

Variants of: B1
Experiment: abundance fitness (aPCA) (normalised: wild type 0, dead -1); higher = more abundant; growth selection in yeast, the domain comes from the species named
Conditions: Homo sapiens

KYFGTAKARYDFCARDRSELSLKEGDIIKILNKKGWQGWWRGEIYGRVGWFPANYVEEDYS [Q36W] and KYFGTAKARYDFCARDRSELSLKEGDIIKILNKKGLQGWWRGEIYGRVGWFPANYVEEDYS [Q36L] are within error of each other in abundance fitness: -0.156 ± 0.094 for the first, -0.045 ± 0.064 for the second.

KYFGTAKARYDFCARDRSELSLKEGDIIKILNKKGNQGWWRGEIYGRVGWFPANYVEEDYS [Q36N] and KYFGTAKARYDFCARDRSELSLKEGDIIKILNKKGSQGWWRGEIYGRVGWFPANYVEEDYS [Q36S] are within error of each other in abundance fitness: -0.248 ± 0.22 for the first, -0.195 ± 0.084 for the second.

KYFGTAKARYDFCARDRSELSLKEGDIIKILNKKGGQGWWRGEIYGRVGWFPANYVEEDYS [Q36G] and KYFGTAKARYDFCARDRSELSLKEGDIIKILNKKGFQGWWRGEIYGRVGWFPANYVEEDYS [Q36F] are within error of each other in abundance fitness: -0.192 ± 0.066 for the first, -0.166 ± 0.15 for the second.

KYFGTAKARYDFCARDRSELSLKEGDIIKILNKKGTQGWWRGEIYGRVGWFPANYVEEDYS [Q36T] and KYFGTAKARYDFCARDRSELSLKEGDIIKILNKKGPQGWWRGEIYGRVGWFPANYVEEDYS [Q36P] are within error of each other in abundance fitness: -0.076 ± 0.088 for the first, 0.074 ± 0.092 for the second.

KYFGTAKARYDFCARDRSELSLKEGDIIKILNKKGIQGWWRGEIYGRVGWFPANYVEEDYS [Q36I] and KYFGTAKARYDFCARDRSELSLKEGDIIKILNKKGHQGWWRGEIYGRVGWFPANYVEEDYS [Q36H] are within error of each other in abundance fitness: -0.084 ± 0.11 for the first, 0.016 ± 0.15 for the second.

KYFGTAKARYDFCARDRSELSLKEGDIIKILNKKGCQGWWRGEIYGRVGWFPANYVEEDYS [Q36C] and KYFGTAKARYDFCARDRSELSLKEGDIIKILNKKGAQGWWRGEIYGRVGWFPANYVEEDYS [Q36A] are within error of each other in abundance fitness: -0.258 ± 0.13 for the first, -0.07 ± 0.094 for the second.

KYFGTAKARYDFCARDRSELSLKEGDIIKILNKKGEQGWWRGEIYGRVGWFPANYVEEDYS [Q36E] and KYFGTAKARYDFCARDRSELSLKEGDIIKILNKKGDQGWWRGEIYGRVGWFPANYVEEDYS [Q36D] are within error of each other in abundance fitness: -0.005 ± 0.077 for the first, -0.073 ± 0.18 for the second.

Going from KYFGTAKARYDFCARDRSELSLKEGDIIKILNKKGYQGWWRGEIYGRVGWFPANYVEEDYS [Q36Y] to KYFGTAKARYDFCARDRSELSLKEGDIIKILNKKGKQGWWRGEIYGRVGWFPANYVEEDYS [Q36K], the abundance fitness rises from -0.219 ± 0.11 to 0.132 ± 0.1.

Compared with KYFGTAKARYDFCARDRSELSLKEGDIIKILNKKGMQGWWRGEIYGRVGWFPANYVEEDYS [Q36M], KYFGTAKARYDFCARDRSELSLKEGDIIKILVKKGQQGWWRGEIYGRVGWFPANYVEEDYS [N32V] is lower in abundance fitness: 0.055 ± 0.085 for the first, -0.223 ± 0.078 for the second.

Going from KYFGTAKARYDFCARDRSELSLKEGDIIKILQKKGQQGWWRGEIYGRVGWFPANYVEEDYS [N32Q] to KYFGTAKARYDFCARDRSELSLKEGDIIKILMKKGQQGWWRGEIYGRVGWFPANYVEEDYS [N32M], the abundance fitness falls from 0.009 ± 0.12 to -0.242 ± 0.11.

KYFGTAKARYDFCARDRSELSLKEGDIIKILLKKGQQGWWRGEIYGRVGWFPANYVEEDYS [N32L] and KYFGTAKARYDFCARDRSELSLKEGDIIKILYKKGQQGWWRGEIYGRVGWFPANYVEEDYS [N32Y] are within error of each other in abundance fitness: -0.292 ± 0.066 for the first, -0.168 ± 0.17 for the second.

Compared with KYFGTAKARYDFCARDRSELSLKEGDIIKILRKKGQQGWWRGEIYGRVGWFPANYVEEDYS [N32R], KYFGTAKARYDFCARDRSELSLKEGDIIKILSKKGQQGWWRGEIYGRVGWFPANYVEEDYS [N32S] is higher in abundance fitness: -0.255 ± 0.063 for the first, 0.082 ± 0.062 for the second.

First: KYFGTAKARYDFCARDRSELSLKEGDIIKILTKKGQQGWWRGEIYGRVGWFPANYVEEDYS [N32T]
Second: KYFGTAKARYDFCARDRSELSLKEGDIIKILNYKGQQGWWRGEIYGRVGWFPANYVEEDYS [K33Y]
The abundance fitness of the first is higher: -0.131 ± 0.1 for the first, -0.475 ± 0.12 for the second.

KYFGTAKARYDFCARDRSELSLKEGDIIKILNHKGQQGWWRGEIYGRVGWFPANYVEEDYS [K33H] and KYFGTAKARYDFCARDRSELSLKEGDIIKILNAKGQQGWWRGEIYGRVGWFPANYVEEDYS [K33A] are within error of each other in abundance fitness: -0.68 ± 0.35 for the first, -0.711 ± 0.12 for the second.

Going from KYFGTAKARYDFCARDRSELSLKEGDIIKILNMKGQQGWWRGEIYGRVGWFPANYVEEDYS [K33M] to KYFGTAKARYDFCARDRSELSLKEGDIIKILNPKGQQGWWRGEIYGRVGWFPANYVEEDYS [K33P], the abundance fitness rises from -0.804 ± 0.23 to -0.41 ± 0.12.

KYFGTAKARYDFCARDRSELSLKEGDIIKILNCKGQQGWWRGEIYGRVGWFPANYVEEDYS [K33C] and KYFGTAKARYDFCARDRSELSLKEGDIIKILNIKGQQGWWRGEIYGRVGWFPANYVEEDYS [K33I] are within error of each other in abundance fitness: -0.732 ± 0.17 for the first, -0.44 ± 0.15 for the second.

KYFGTAKARYDFCARDRSELSLKEGDIIKILNLKGQQGWWRGEIYGRVGWFPANYVEEDYS [K33L] and KYFGTAKARYDFCARDRSELSLKEGDIIKILNGKGQQGWWRGEIYGRVGWFPANYVEEDYS [K33G] are within error of each other in abundance fitness: -0.929 ± 0.16 for the first, -0.734 ± 0.11 for the second.

KYFGTAKARYDFCARDRSELSLKEGDIIKILNQKGQQGWWRGEIYGRVGWFPANYVEEDYS [K33Q] and KYFGTAKARYDFCARDRSELSLKEGDIIKILNTKGQQGWWRGEIYGRVGWFPANYVEEDYS [K33T] are within error of each other in abundance fitness: -0.478 ± 0.19 for the first, -0.377 ± 0.11 for the second.

KYFGTAKARYDFCARDRSELSLKEGDIIKILNFKGQQGWWRGEIYGRVGWFPANYVEEDYS [K33F] and KYFGTAKARYDFCARDRSELSLKEGDIIKILNDKGQQGWWRGEIYGRVGWFPANYVEEDYS [K33D] are within error of each other in abundance fitness: -0.593 ± 0.14 for the first, -0.743 ± 0.2 for the second.

KYFGTAKARYDFCARDRSELSLKEGDIIKILNSKGQQGWWRGEIYGRVGWFPANYVEEDYS [K33S] and KYFGTAKARYDFCARDRSELSLKEGDIIKILNNKGQQGWWRGEIYGRVGWFPANYVEEDYS [K33N] are within error of each other in abundance fitness: -0.576 ± 0.092 for the first, -0.681 ± 0.2 for the second.

First: KYFGTAKARYDFCARDRSELSLKEGDIIKILNVKGQQGWWRGEIYGRVGWFPANYVEEDYS [K33V]
Second: KYFGTAKARYDFCARDRSELSLKEGDIIKILNRKGQQGWWRGEIYGRVGWFPANYVEEDYS [K33R]
The abundance fitness of the first is lower: -0.41 ± 0.068 for the first, -0.089 ± 0.051 for the second.

KYFGTAKARYDFCARDRSELSLKEGDIIKILNEKGQQGWWRGEIYGRVGWFPANYVEEDYS [K33E] showed an abundance fitness of -0.46 ± 0.15.
